According to patent US20140178854A1:

Tests used:
[1] = target: gp70 env protein of amphotropic MLV (4070A envelope), on purified viral particles (amphotropic murine leukemia virus (4070A envelope)); assay: ELISA on plate-bound MLV, dilution factor 50, Exp074-DTV Plate 1
[2] = target: gp70 env protein of amphotropic MLV (4070A envelope), on purified viral particles (amphotropic murine leukemia virus (4070A envelope)); assay: ELISA on plate-bound MLV, dilution factor 50, Exp122-Ana Plate 1
[3] = target: gp70 env protein of amphotropic MLV (4070A envelope), on purified viral particles (amphotropic murine leukemia virus (4070A envelope)); assay: ELISA on plate-bound MLV, dilution factor 10, Exp074-DTV Plate 2
[4] = target: gp70 env protein of amphotropic MLV (4070A envelope), on purified viral particles (amphotropic murine leukemia virus (4070A envelope)); assay: ELISA on plate-bound MLV, dilution factor 10, Exp121-Ana Plate 1
[5] = target: gp70 env protein of amphotropic MLV (4070A envelope), on purified viral particles (amphotropic murine leukemia virus (4070A envelope)); assay: ELISA on plate-bound MLV, dilution factor 1250, Exp072-DTV Plate 2
[6] = target: gp70 env protein of amphotropic MLV (4070A envelope), on purified viral particles (amphotropic murine leukemia virus (4070A envelope)); assay: ELISA on plate-bound MLV, dilution factor 156250, Exp073-DTV Plate 2
[7] = target: gp70 env protein of amphotropic MLV (4070A envelope), on purified viral particles (amphotropic murine leukemia virus (4070A envelope)); assay: ELISA on plate-bound MLV, dilution factor 156250, Exp121-Ana Plate 2
[8] = target: gp70 env protein of amphotropic MLV (4070A envelope), on purified viral particles (amphotropic murine leukemia virus (4070A envelope)); assay: ELISA on plate-bound MLV, dilution factor 156250, Exp122-Ana Plate 1
[9] = target: gp70 env protein of amphotropic MLV (4070A envelope), on purified viral particles (amphotropic murine leukemia virus (4070A envelope)); assay: ELISA on plate-bound MLV, dilution factor 250, Exp074-DTV Plate 1
[10] = target: gp70 env protein of amphotropic MLV (4070A envelope), on purified viral particles (amphotropic murine leukemia virus (4070A envelope)); assay: ELISA on plate-bound MLV, dilution factor 781250, Exp121-Ana Plate 2
[11] = target: gp70 env protein of amphotropic MLV (4070A envelope), on purified viral particles (amphotropic murine leukemia virus (4070A envelope)); assay: ELISA on plate-bound MLV, dilution factor 1250, Exp122-Ana Plate 2
[12] = target: gp70 env protein of amphotropic MLV (4070A envelope), on purified viral particles (amphotropic murine leukemia virus (4070A envelope)); assay: ELISA on plate-bound MLV, dilution factor 31250, Exp122-Ana Plate 2
[13] = target: gp70 env protein of amphotropic MLV (4070A envelope), on purified viral particles (amphotropic murine leukemia virus (4070A envelope)); assay: ELISA on plate-bound MLV, dilution factor 31250, Exp073-DTV Plate 2
[14] = target: gp70 env protein of amphotropic MLV (4070A envelope), on purified viral particles (amphotropic murine leukemia virus (4070A envelope)); assay: ELISA on plate-bound MLV, dilution factor 250, Exp072-DTV Plate 2
[15] = target: gp70 env protein of amphotropic MLV (4070A envelope), on purified viral particles (amphotropic murine leukemia virus (4070A envelope)); assay: ELISA on plate-bound MLV, dilution factor 10, Exp122-Ana Plate 2
[16] = target: gp70 env protein of amphotropic MLV (4070A envelope), on purified viral particles (amphotropic murine leukemia virus (4070A envelope)); assay: ELISA on plate-bound MLV, dilution factor 156250, Exp074-DTV Plate 1
[17] = target: gp70 env protein of amphotropic MLV (4070A envelope), on purified viral particles (amphotropic murine leukemia virus (4070A envelope)); assay: ELISA on plate-bound MLV, dilution factor 781250, Exp121-Ana Plate 1
[18] = target: gp70 env protein of amphotropic MLV (4070A envelope), on purified viral particles (amphotropic murine leukemia virus (4070A envelope)); assay: ELISA on plate-bound MLV, dilution factor 156250, Exp125-Ana Plate 2
[19] = target: gp70 env protein of amphotropic MLV (4070A envelope), on purified viral particles (amphotropic murine leukemia virus (4070A envelope)); assay: ELISA on plate-bound MLV, dilution factor 10, Exp121-Ana Plate 2
[20] = target: gp70 env protein of amphotropic MLV (4070A envelope), on purified viral particles (amphotropic murine leukemia virus (4070A envelope)); assay: ELISA on plate-bound MLV, dilution factor 50, Exp121-Ana Plate 1
[21] = target: gp70 env protein of amphotropic MLV (4070A envelope), on purified viral particles (amphotropic murine leukemia virus (4070A envelope)); assay: ELISA on plate-bound MLV, dilution factor 6250, Exp122-Ana Plate 1
[22] = target: gp70 env protein of amphotropic MLV (4070A envelope), on purified viral particles (amphotropic murine leukemia virus (4070A envelope)); assay: ELISA on plate-bound MLV, dilution factor 156250, Exp121-Ana Plate 1
[23] = target: gp70 env protein of amphotropic MLV (4070A envelope), on purified viral particles (amphotropic murine leukemia virus (4070A envelope)); assay: ELISA on plate-bound MLV, dilution factor 10, Exp073-DTV Plate 2
[24] = target: gp70 env protein of amphotropic MLV (4070A envelope), on purified viral particles (amphotropic murine leukemia virus (4070A envelope)); assay: ELISA on plate-bound MLV, dilution factor 31250, Exp121-Ana Plate 1
[25] = target: gp70 env protein of amphotropic MLV (4070A envelope), on purified viral particles (amphotropic murine leukemia virus (4070A envelope)); assay: ELISA on plate-bound MLV, dilution factor 1250, Exp125-Ana Plate 1
[26] = target: gp70 env protein of amphotropic MLV (4070A envelope), on purified viral particles (amphotropic murine leukemia virus (4070A envelope)); assay: ELISA on plate-bound MLV, dilution factor 31250, Exp121-Ana Plate 2

gp70 env protein of amphotropic MLV (4070A envelope), on purified viral particles (amphotropic murine leukemia virus (4070A envelope)), sequence (P21995 whole entry): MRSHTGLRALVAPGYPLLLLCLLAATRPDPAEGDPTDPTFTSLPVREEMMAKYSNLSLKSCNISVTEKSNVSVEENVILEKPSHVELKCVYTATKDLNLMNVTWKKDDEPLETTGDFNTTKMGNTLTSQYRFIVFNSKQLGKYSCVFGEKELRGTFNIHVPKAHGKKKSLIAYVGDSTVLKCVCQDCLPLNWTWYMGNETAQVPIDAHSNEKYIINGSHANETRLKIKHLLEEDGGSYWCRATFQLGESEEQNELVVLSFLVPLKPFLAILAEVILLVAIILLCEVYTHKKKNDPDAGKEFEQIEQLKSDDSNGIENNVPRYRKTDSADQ

## 83A25 monoclonal antibody (rat IgG2a, anti-gp70)
[1]
  Mean OD: 2.01 OD
[2]
  Mean OD: 2.01 OD
[3]
  Mean OD: 2.31 OD
[4]
  Mean OD: 2.65 OD
[5]
  Mean OD: 1.31 OD
[6]
  Mean OD: 0.139 OD
[7]
  Mean OD: 0.159 OD
[8]
  Mean OD: 0.18 OD
[9]
  Mean OD: 1.92 OD
[10]
  Mean OD: 0.131 OD
[11]
  Mean OD: 1.4 OD
[12]
  Mean OD: 0.271 OD
[13]
  Mean OD: 0.276 OD
[14]
  Mean OD: 1.56 OD
[15]
  Mean OD: 2.18 OD
[16]
  Mean OD: 0.145 OD
[17]
  Mean OD: 0.137 OD
[18]
  Mean OD: 0.124 OD
[19]
  Mean OD: 2.65 OD
[20]
  Mean OD: 2.43 OD
[21]
  Mean OD: 0.64 OD
[22]
  Mean OD: 0.163 OD
[23]
  Mean OD: 2.48 OD
[24]
  Mean OD: 0.322 OD
[25]
  Mean OD: 1.44 OD
[26]
  Mean OD: 0.276 OD
